Two molecules from patent publication US20240109955A1 can be followed below.

Assay in all cases: cell-based or functional assay
The target of test [1] is SARS-CoV-2 Omicron variant BF.7 spike protein (SARS-CoV-2).
Test [2] addresses SARS-CoV-2 Omicron variant BQ.1.1 spike protein (SARS-CoV-2).
The target in test [3] is SARS-CoV-2 Omicron variant BA.4/5 spike protein (SARS-CoV-2).
Test [4] has as its target SARS-CoV-2 Omicron variant BA.2.75.2 spike protein (SARS-CoV-2).
Test [5] addresses SARS-CoV-2 Omicron variant XBB spike protein (SARS-CoV-2).
In test [6] the target is SARS-CoV-2 Omicron variant BA.4.6 spike protein (SARS-CoV-2).
For test [7], the target named is SARS-CoV-2 Omicron variant B.1.1.529 spike protein (SARS-CoV-2).
Test [8] has as its target SARS-CoV-2 Delta variant spike protein (SARS-CoV-2).
Test [9] has as its target SARS-CoV-2 Omicron variant BQ.1 spike protein (SARS-CoV-2).

B1: MX1022 (bispecific antibody)
chain: DTVMTQSPLSLPVTPGEPASISCRSSQSLLNSNGYNYLDWYVQKPGQSPQLLIYLGSNRASGVPDRFSGSGSGTDFTLKISRVEAEDVGVYYCMQPLQTPLFTFGPGTKVEIKGGSSGEIVMTQSPAILSVSPGERATLSCRASQSVAINLAWYQQKPGQAPRLLIYAASSRATGIPGRFSGSGSETNFTLTISSLQSGDFAVYYCQQYITWPPSYTFGQGTKLEIKGGGGSGGSGSGGGGSASGSGEVQLVESGGALIQPGGSLRLSCAASGIIVSANYMSWVRQAPGKGLEWVSVIYSGGSTFYADSVKGRFTISRDNSKNTLYLEMNSLRAEDTAVYYCARDAPILGVSDWGQGTLVTVSSGGSSGQVTLRESGPALVKPTQTLTLTCTFSGFSLSTRGVCVSWIRQPPGKALEWLAFIDWDDDKYYNTSLKTRLTISKDTSKNQVVLTMTNVHPVDTATYYCARISSHHGSSWCTTFDYWGQGALVTVSAASGGSGDKTHTCPPCPAPELLGGPSVFLFPPKPKDTLMISRTPEVTCVVVDVSHEDPEVKFNWYVDGVEVHNAKTKPREEQYNSYVVSVLTVLHQDWLNGKEYKCKVSNKALPAPIEKTISKAKGQPREPQVYTLPPSRDELTKNQVSLTCLVKGFYPSDIAVEWESNGQPENNYKTTPPVLDSDGSFFKKLTVDKSRWQQGNVFSCSVLHEALHSHYTQKSLSLSPG
B1: the IC50, pseudovirus neutralization was found to be 2.38 ng/mL in test [1]; 1.13 ng/mL in [2]; 1.98 ng/mL in test [3]; 0.89 ng/mL in [4]; 5.85 ng/mL in test [5]; 4.9 ng/mL in test [6]. The IC50, pseudovirus neutralization in [7] stood at 4.22 ng/mL; in test [8], 31.5 ng/mL; in test [9], 6.58 ng/mL. In addition, the IC80, pseudovirus neutralization in test [1] was determined as 8.29 ng/mL; in test [2], 6.72 ng/mL; in [3] it was 3.33 ng/mL; in [4], 2.8 ng/mL; in test [5], 12.4 ng/mL; in test [6] it was 8.82 ng/mL. For the same molecule, the IC80, pseudovirus neutralization in test [7] is 4.74 ng/mL; in test [8], 25.4 ng/mL; in test [9] it was 19.2 ng/mL.

B2: MX1021 (bispecific antibody)
chain: QTVVTQEPSFSVSPGGTVTLTCGLSSGSVSTAYFPSWYQQTPGQAPRTLIYGTNTRSSGVPDRFSGSILGNKAALTITGAQADDESDYYCVLYMGRGIVVFGGGTKLTVLGGSSGEIVMTQSPAILSVSPGERATLSCRASQSVAINLAWYQQKPGQAPRLLIYAASSRATGIPGRFSGSGSETNFTLTISSLQSGDFAVYYCQQYITWPPSYTFGQGTKLEIKGGGGSGGSGSGGGGSASGSGEVQLVESGGALIQPGGSLRLSCAASGIIVSANYMSWVRQAPGKGLEWVSVIYSGGSTFYADSVKGRFTISRDNSKNTLYLEMNSLRAEDTAVYYCARDAPILGVSDWGQGTLVTVSSGGSSGQVQLVESGGGVVQPGRSLRLSCAASGFTLSSYGMHWVRQAPGKGLEWVAVISYDGSNKYYVDSVKGRFTISRDNSKNTLYLQMNSLRAEDTAVYYCRWAYWELLPDYYYGMDVWGQGTTVTVSSASGGSGDKTHTCPPCPAPELLGGPSVFLFPPKPKDTLMISRTPEVTCVVVDVSHEDPEVKFNWYVDGVEVHNAKTKPREEQYNSYVVSVLTVLHQDWLNGKEYKCKVSNKALPAPIEKTISKAKGQPREPQVYTLPPSRDELTKNQVSLTCLVKGFYPSDIAVEWESNGQPENNYKTTPPVLDSDGSFFKKLTVDKSRWQQGNVFSCSVLHEALHSHYTQKSLSLSPG
As for B2, the IC50, pseudovirus neutralization in [1] was found to be 11.3 ng/mL; in test [2] it was 2.77 ng/mL; in test [3] it was 13.8 ng/mL; in [4] it was 3.73 ng/mL; in test [5], 14.7 ng/mL; in [6], 12.9 ng/mL. In addition, the IC50, pseudovirus neutralization in test [7] was 2.91 ng/mL; in test [8], 64.8 ng/mL; in [9], 11.3 ng/mL. The IC80, pseudovirus neutralization in [1] came out at 31.7 ng/mL; in [2] it was 28.5 ng/mL; in test [3] it was 26 ng/mL; in test [4], 13.2 ng/mL; in test [5], 61.1 ng/mL; in test [6], 41.4 ng/mL. Also, the IC80, pseudovirus neutralization in [7] is 13.1 ng/mL; in [8], 219 ng/mL; in test [9], 51.9 ng/mL.
